How the values were obtained:
Test in all cases: biochemical
Type in all cases: biochemical
266 human kinases [1] = biological target: T1, 266 human kinases (Homo sapiens, UniProt O15111); details: IKKα(h); 100 μM
T1 sequence (O15111 1-745): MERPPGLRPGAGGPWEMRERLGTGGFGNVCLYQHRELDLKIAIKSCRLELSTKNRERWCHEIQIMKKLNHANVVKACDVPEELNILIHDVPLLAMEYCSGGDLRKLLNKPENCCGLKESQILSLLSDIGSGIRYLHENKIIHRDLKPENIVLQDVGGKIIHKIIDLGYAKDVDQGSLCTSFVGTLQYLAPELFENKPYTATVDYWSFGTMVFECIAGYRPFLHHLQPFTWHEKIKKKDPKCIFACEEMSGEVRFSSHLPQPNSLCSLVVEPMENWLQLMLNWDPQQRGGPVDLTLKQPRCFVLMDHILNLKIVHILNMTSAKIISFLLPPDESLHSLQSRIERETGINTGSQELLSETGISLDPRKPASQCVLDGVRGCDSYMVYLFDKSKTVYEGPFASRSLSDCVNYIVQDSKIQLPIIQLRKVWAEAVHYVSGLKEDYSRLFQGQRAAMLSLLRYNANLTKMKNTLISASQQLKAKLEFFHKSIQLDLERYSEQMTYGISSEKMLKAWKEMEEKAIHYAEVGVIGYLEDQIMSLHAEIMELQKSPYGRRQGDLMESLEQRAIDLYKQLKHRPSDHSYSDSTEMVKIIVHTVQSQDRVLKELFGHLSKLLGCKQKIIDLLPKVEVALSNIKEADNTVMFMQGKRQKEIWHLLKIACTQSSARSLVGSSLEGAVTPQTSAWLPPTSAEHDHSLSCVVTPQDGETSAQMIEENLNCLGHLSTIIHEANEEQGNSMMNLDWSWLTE
Procedure, shortened: (§1)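 Steps: kinase transfers radiolabelled phosphate from ATP onto a positively charged substrate; the substrate is trapped on a negatively charged filter; bound radioactivity is counted by scintillation and compared with uninhibited (100%) activity.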

266 human kinases [2] = biological target: T2, 266 human kinases (Homo sapiens, UniProt O15146); details: MuSK(h); 100 μM
T2 sequence (O15146 24-869): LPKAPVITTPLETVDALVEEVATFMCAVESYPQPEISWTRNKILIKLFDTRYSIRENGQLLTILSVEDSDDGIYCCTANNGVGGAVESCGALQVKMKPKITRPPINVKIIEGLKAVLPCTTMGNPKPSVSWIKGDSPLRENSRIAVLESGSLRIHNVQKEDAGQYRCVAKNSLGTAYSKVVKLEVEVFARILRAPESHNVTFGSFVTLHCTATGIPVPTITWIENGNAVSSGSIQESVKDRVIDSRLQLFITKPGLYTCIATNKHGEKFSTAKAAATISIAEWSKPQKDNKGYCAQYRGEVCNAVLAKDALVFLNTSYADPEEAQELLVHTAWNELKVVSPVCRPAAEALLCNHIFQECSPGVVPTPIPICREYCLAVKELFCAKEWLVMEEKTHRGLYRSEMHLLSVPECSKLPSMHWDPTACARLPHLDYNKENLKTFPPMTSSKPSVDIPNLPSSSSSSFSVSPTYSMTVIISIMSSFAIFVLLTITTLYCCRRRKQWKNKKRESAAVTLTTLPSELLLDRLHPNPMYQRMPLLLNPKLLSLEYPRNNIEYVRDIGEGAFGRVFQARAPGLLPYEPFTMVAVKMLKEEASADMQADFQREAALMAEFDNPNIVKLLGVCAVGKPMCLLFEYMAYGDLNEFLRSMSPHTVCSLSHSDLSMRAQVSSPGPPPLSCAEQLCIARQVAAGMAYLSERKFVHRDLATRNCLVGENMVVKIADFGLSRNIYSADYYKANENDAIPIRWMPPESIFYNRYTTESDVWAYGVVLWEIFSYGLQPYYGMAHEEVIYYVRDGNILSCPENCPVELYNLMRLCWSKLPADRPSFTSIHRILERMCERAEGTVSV
Procedure, shortened: as §1

266 human kinases [3] = biological target: 266 human kinases (Homo sapiens, UniProt P04049); details: c-RAF(h); 100 μM
Procedure, shortened: as §1

266 human kinases [4] = biological target: 266 human kinases (Homo sapiens, UniProt P10721, V560G); details: cKit(V560G)(h); 100 μM
Procedure, shortened: as §1

266 human kinases [5] = biological target: 266 human kinases (Homo sapiens, UniProt P49840); details: GSK3α(h); 100 μM
266 human kinases (Homo sapiens, UniProt P49840), sequence (P49840 whole entry): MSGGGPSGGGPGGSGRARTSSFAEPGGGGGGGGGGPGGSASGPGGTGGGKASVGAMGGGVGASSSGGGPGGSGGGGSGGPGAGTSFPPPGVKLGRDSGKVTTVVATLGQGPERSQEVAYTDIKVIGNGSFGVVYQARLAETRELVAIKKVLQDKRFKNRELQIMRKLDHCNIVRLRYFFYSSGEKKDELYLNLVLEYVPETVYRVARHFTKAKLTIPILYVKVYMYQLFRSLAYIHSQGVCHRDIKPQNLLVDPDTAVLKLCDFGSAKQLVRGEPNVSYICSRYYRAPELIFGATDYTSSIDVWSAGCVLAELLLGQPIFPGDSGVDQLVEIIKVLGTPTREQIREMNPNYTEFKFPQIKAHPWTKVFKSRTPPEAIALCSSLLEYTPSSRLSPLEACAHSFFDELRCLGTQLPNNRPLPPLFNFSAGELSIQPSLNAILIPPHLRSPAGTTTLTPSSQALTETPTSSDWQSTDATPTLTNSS
Procedure, shortened: as §1

266 human kinases [6] = biological target: 266 human kinases (Homo sapiens, UniProt Q5VT25); details: MRCKα(h); 100 μM
266 human kinases (Homo sapiens, UniProt Q5VT25), sequence (Q5VT25 whole entry): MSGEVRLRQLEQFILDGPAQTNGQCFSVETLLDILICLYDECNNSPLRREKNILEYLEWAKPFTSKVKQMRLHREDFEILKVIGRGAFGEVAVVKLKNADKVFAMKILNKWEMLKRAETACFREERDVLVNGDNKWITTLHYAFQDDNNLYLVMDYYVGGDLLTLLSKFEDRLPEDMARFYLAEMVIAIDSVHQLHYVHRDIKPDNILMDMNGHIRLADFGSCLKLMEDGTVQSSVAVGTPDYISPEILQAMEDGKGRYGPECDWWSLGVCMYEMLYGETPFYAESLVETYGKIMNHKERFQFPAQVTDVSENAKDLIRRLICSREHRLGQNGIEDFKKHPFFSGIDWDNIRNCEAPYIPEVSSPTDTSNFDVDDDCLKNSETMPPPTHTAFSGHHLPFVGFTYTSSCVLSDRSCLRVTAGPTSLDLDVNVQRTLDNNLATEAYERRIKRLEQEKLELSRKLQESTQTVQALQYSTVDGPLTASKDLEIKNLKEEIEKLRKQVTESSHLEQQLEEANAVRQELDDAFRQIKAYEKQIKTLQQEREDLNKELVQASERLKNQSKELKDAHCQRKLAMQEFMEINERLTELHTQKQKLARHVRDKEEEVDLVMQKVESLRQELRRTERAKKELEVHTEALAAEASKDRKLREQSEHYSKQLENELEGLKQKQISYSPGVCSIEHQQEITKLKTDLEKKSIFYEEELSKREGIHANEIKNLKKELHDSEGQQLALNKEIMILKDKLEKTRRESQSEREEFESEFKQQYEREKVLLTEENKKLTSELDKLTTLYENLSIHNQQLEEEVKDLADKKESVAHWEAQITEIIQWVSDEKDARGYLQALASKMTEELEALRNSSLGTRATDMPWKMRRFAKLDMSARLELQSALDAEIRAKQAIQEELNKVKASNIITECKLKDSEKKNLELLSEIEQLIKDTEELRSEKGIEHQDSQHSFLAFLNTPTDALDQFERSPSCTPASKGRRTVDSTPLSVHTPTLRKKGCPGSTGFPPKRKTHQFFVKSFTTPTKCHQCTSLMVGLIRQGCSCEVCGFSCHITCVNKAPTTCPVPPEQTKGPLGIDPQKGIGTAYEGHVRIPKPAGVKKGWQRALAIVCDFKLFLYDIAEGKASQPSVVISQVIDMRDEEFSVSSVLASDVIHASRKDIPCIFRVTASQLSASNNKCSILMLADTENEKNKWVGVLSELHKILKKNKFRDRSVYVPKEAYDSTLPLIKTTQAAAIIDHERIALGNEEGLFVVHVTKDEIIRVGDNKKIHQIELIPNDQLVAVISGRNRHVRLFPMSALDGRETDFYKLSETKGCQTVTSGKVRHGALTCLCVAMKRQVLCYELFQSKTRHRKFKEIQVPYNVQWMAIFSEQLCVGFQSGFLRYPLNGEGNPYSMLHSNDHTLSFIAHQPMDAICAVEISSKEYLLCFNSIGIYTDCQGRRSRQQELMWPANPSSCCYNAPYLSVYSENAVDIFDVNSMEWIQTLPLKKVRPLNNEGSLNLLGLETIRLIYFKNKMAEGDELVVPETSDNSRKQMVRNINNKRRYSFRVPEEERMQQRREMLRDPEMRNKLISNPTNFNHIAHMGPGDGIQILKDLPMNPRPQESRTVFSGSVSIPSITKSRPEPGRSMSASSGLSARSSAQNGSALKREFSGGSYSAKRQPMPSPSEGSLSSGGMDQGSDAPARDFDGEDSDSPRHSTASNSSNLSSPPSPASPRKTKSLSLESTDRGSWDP
Procedure, shortened: as §1

266 human kinases [7] = biological target: 266 human kinases (Homo sapiens, UniProt Q9H1R3); details: MLCK(h); 100 μM
266 human kinases (Homo sapiens, UniProt Q9H1R3), sequence (Q9H1R3 whole entry): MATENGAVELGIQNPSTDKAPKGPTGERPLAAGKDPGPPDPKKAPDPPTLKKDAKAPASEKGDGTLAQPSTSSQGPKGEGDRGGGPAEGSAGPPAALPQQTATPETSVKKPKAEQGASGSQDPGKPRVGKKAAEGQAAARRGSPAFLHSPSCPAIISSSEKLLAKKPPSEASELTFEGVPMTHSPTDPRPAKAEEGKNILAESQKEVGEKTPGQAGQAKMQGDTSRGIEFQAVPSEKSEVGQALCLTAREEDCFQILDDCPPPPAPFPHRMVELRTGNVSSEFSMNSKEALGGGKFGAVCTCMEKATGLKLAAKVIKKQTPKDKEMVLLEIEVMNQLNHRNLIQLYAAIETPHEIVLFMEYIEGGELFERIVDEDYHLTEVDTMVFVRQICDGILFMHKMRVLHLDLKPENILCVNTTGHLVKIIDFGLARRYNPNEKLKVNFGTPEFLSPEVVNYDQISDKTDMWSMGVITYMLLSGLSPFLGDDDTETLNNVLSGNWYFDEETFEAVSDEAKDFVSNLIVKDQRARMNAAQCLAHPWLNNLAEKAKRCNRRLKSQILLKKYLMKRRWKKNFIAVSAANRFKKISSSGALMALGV
Procedure, shortened: as §1

266 human kinases [8] = biological target: 266 human kinases (Homo sapiens, UniProt O75914); details: PAK3(h); 100 μM
266 human kinases (Homo sapiens, UniProt O75914), sequence (O75914 whole entry): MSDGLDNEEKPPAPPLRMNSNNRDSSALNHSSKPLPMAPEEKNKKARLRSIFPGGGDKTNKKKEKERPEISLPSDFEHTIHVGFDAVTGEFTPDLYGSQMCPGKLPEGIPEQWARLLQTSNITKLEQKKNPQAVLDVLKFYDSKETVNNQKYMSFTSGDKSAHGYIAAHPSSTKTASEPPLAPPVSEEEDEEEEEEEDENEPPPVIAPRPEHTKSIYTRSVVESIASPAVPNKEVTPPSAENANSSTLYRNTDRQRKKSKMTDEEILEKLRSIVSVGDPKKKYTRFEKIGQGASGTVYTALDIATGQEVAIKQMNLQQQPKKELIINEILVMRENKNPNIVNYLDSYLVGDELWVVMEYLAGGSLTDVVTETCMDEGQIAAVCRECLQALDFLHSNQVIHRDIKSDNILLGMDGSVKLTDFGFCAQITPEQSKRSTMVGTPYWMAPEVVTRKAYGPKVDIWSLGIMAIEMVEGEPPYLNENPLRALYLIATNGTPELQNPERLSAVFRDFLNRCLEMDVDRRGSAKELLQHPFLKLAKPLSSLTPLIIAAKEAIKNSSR
Procedure, shortened: as §1

266 human kinases [9] = biological target: 266 human kinases (Homo sapiens, UniProt P11362, V561M); details: FGFR1(V561M)(h); 100 μM
266 human kinases (Homo sapiens, UniProt P11362, V561M), sequence (P11362 22-822 V561M): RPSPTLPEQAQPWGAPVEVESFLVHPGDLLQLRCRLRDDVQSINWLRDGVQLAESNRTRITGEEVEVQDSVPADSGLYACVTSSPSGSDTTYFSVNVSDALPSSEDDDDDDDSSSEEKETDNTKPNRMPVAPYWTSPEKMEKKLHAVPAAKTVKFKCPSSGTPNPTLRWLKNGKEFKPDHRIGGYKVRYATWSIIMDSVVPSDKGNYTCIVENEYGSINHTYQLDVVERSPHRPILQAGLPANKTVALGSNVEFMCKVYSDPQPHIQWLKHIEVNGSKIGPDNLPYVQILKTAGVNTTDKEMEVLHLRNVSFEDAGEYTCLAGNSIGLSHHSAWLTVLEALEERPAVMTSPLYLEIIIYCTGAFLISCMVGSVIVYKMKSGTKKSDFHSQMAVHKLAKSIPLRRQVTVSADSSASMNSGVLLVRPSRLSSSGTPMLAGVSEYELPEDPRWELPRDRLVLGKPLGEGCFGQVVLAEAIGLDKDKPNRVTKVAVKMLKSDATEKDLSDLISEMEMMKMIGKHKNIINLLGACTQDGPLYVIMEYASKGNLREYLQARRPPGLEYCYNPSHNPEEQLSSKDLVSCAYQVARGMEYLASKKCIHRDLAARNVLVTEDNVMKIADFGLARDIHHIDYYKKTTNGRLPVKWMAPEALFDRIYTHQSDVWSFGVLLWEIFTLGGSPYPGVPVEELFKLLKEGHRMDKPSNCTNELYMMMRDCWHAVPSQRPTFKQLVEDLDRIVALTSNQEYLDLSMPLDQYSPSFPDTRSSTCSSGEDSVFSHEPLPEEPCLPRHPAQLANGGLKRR
Procedure, shortened: as §1

266 human kinases [10] = biological target: 266 human kinases (Homo sapiens, UniProt P34947); details: GRK5(h); 100 μM
266 human kinases (Homo sapiens, UniProt P34947), sequence (P34947 whole entry): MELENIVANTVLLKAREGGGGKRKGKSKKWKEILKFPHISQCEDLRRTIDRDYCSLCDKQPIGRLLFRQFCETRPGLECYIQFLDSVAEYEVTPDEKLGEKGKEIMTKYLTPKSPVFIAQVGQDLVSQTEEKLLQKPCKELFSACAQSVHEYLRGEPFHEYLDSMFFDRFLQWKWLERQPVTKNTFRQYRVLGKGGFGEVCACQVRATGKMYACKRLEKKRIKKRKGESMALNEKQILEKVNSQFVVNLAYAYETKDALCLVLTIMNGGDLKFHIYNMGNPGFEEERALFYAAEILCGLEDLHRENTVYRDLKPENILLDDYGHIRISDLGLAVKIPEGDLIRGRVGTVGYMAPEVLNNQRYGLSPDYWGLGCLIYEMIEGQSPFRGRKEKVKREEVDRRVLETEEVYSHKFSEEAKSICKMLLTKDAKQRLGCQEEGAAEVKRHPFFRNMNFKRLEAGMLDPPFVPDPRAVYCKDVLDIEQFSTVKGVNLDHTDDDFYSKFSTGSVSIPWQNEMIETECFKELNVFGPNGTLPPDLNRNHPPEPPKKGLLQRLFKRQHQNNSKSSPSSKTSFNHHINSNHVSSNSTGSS
Procedure, shortened: as §1

HRRIKAWLKKIKALARQLGVAA (mammal) [MMI-0500]
% activity (266 human kinases [1]): 50%
% activity (266 human kinases [2]): 27%
% activity (266 human kinases [3]): 19%
% activity (266 human kinases [4]): 198%
% activity (266 human kinases [5]): 175%
% activity (266 human kinases [6]): 5%
% activity (266 human kinases [7]): 0%

YARAAARQARAKALNRQLGVA (mammal) [MMI-0200]
% activity (266 human kinases [8]): 50%
% activity (266 human kinases [9]): 72%
% activity (266 human kinases [10]): 135%
